Measured values published in patent US20140219978A1 (published 2014).

What was measured:
[1] = molecular target: none (gp100-negative cells) peptide on HLA-A2 (human); assay: RNA-electroporated human PBL with HLA-A2+ gp100-negative melanoma A375; 31 pg/ml for transduced PBL in Table 7; text: did not recognize melanoma cell lines not expressing gp100; full-length, on cells; conditions: chains Valpha:Vbeta
[2] = molecular target: T1, gp100 peptide on HLA-A*02:01 (human); assay: multimer staining
T1 peptide: ITDQVPFSV

IFN-gamma release [1]: 45 pg/mL
binding result [2]: no recognition
B1: Sp(0.01)A TCR (TCR, V domains shown)
Valpha: QQKVQQSPESLIVPEGAMTSLNCTFSDSASQYFAWYRQHSGKAPKALMSIFSNGEKEEGRFTIHLNKASLHFSLHIRDSQPSDSALYLCAANNYAQGLTFGLGTRVSVFP
Vbeta: EAAVTQSPRSKVAVTGGKVTLSCHQTNNHDYMYWYRQDTGHGLRLIHYSYVADSTEKGDIPDGYKASRPSQENFSLILELASLSQTAVYFCASSPGGGGEQYFGPGTRLTVL
